From patent US7214519B2, “Screening method for identifying heme independent modulators of soluble guanylyl cyclase (sGC) activity using αβCys105 mutant sGC” (Board of Regents of the University of Texas System, priority 2003, dated 2007)
Changes are numbered by the printed parent chain. Several values for one entry are separate records, joined by “and”; a condition that tells them apart may be missing. Equal entries are not always repeated. Where two headings read alike, the source gives them in different places. Each block holds one molecule with its values, some of them ahead of it.

How the values were obtained:
αβ^Cys105 mutant sGC = target: T1, αβ^Cys105 mutant sGC (Homo sapiens, UniProt Q02108+Q02153, H105C); assay: Assay of sGC activity ([32P]cGMP formation from GTP), purified αβ^Cys105 mutant enzyme; type: biochemical; conditions: for PPIX activation, fold: 1 μM PPIX
T1 construct: made in house; host or cells: Sf9 cells (baculovirus)
T1 sequence (Q02153 1-619 H105C): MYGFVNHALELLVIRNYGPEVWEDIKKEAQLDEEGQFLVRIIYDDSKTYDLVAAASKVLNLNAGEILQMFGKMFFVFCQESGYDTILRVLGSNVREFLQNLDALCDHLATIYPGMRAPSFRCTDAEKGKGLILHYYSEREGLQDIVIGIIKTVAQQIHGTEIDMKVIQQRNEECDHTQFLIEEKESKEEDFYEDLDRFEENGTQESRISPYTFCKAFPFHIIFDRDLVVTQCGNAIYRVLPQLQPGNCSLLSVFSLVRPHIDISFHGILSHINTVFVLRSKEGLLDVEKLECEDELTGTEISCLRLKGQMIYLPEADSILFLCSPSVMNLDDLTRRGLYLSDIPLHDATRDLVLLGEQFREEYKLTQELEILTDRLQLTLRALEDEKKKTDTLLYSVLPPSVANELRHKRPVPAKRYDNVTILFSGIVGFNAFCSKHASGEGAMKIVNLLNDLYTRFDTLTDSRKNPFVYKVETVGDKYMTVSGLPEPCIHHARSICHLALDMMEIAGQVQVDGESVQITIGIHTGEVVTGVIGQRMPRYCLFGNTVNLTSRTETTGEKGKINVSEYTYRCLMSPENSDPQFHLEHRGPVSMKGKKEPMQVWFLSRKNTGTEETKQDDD
T1 sequence (Q02108 1-690): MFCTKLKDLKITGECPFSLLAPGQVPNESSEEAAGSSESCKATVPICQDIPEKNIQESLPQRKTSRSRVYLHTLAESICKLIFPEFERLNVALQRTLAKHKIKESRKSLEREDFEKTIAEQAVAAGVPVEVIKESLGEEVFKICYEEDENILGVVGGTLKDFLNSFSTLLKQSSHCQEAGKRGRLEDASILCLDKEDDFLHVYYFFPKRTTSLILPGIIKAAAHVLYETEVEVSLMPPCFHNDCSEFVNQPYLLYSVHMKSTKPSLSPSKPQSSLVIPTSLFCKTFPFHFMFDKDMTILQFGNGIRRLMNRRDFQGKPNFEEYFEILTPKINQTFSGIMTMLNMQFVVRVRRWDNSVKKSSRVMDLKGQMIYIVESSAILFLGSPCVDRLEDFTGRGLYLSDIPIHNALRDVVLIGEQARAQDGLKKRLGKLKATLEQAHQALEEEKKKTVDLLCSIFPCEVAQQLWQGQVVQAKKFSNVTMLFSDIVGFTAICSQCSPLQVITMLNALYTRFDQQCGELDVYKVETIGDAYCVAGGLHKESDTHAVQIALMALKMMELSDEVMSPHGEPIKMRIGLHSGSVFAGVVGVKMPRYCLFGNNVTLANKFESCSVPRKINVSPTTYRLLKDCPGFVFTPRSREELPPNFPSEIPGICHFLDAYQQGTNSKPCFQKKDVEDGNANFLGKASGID
Protocol: sGC Expression and Purification. […] Purification of sGC was performed as described earlier (26), the disclosure of which is hereby incorporated herein by reference, with the following modifications. Cells were harvested 72 h post infection, resuspended in loading buffer (25 mM triethanolamine, pH 7.5. 10 glycerol, 4 mM MgCl2 and 1 mM phenylmethylsulfonyl fluoride, and 5 μg/ml each of pepstatin A, leupeptin, aprotinin, and chymostatin,) and lysed by sonication. The lysate was subjected to 100,000×g centrifugation for 1 h. The high-speed supernate was loaded on a 60 ml DEAE-Sepharose (Amersham Pharmacia Biotech) column and washed with 60 ml of loading buffer without protease inhibitors. The proteins were eluted with loading buffer containing 250 mM NaCl and the eluate was directly loaded on a 30 ml His-Bind resin (Novagen) column. The column was washed with 60 ml of loading buffer followed by 60 ml of loading buffer with 45 mM imidazole. The enzyme was eluted with 175 mM imidazole and 2 ml fractions were collected. […] The enzyme at this stage was approximately 90–95% pure. To remove imidazole, sGC-containing fractions were diluted 3 fold with 25 mM triethanolamine pH 7.5, loaded on a 2 ml Hi-Trap DEAE-Sepharose column (Amersham Pharmacia Biotech), washed with 10 ml of loading buffer and eluted with 25 mM triethanolamine pH 7.5, 250 mM NaCl, 10 glycerol, 4 mM MgCl2, 0.5 mM EDTA, 0.5 mM EGTA. The enzyme obtained at this stage (95% or greater purity) was used for experiments.
Assay of sGC Activity. Enzyme activity was assayed by formation of [^32P] cGMP from α[^32P]GTP at 37° C. in a final volume of 100 μl. Incubation medium contained 50 mM triethanolamine-HCl buffer (pH 7.4), 1 mM 3-isobutyl-1-methylxanthine (IBMX), 1 mg/ml BSA. 1 mM cGMP, 3 mM MgCl2, 0.05 mg/ml creatine phosphokinase, 5 mM creatine phosphate, 0.1 mM EGTA. 200 μM GTP (about 10.000 cpm/pmol). The reaction was started by addition of the substrate (GTP) with or without activators. 1 mM DTT, GSH or cysteine were added to the incubation medium before the addition of GTP. Thiol concentration varied in some experiments as indicated. Samples containing 0.2 μg sGC were incubated for 10 or 15 min and the reaction was stopped by addition of 500 μl 150 mM zinc acetate and 500 μl 180 mM sodium carbonate. The pellet of zinc carbonate containing most of the unreacted GTP was removed by centrifugation and the supernatant fractions were loaded onto columns filled with 1 g of neutral alumina. Columns were then eluted with 10 ml 0.1 M Tris-HCl buffer (pH 7.5) and Cherenkov radiation in flow through plus eluate was counted in a LKB liquid scintillation spectrometer. Samples incubated in the absence of sGC were used as a negative control. The concentration of dimethylsulfoxide (DMSO) used as a vehicle for YC-1 was not higher than 0.1 and had no effect on sGC activity as determined previously.

[1] = target: T2, Sf9 cells expressing αβ^Cys105 sGC (Homo sapiens, UniProt Q02108+Q02153, H105C); assay: cGMP accumulation in intact Sf9 cells expressing αβ^Cys105 sGC; type: cell-based
T2 construct: expressed in transfected cells; host or cells: Sf9 cells infected with baculoviruses
T2 sequence (Q02153 1-619 H105C): T1 sequence (Q02153 1-619 H105C)
T2 sequence (Q02108 1-690): T1 sequence (Q02108 1-690)
Protocol: Assay of cGMP Accumulation in Intact Cells. […] The reaction was terminated by addition of 50 μl of 1 M perchloric acid and cGMP was extracted on ice for 1 h. The extract was centrifuged, neutralized with 2M K2CO3 and used for cGMP determination by radioimmunoassay (9, 27). The pellet was dissolved in 0.1 M NaOH and used for protein assay by the method of Lowry (28).
Accumulated cGMP was extracted and quantified as described in Materials and Methods. Values are shown as means±s.d. The differences in intracellular accumulation of cGMP in Sf9 cells expressing the wild type enzyme or the mutant form are discussed below.

αβ^Phe105 sGC = target: T3, αβ^Phe105 sGC (Bos taurus, UniProt P16068+P19687, H105F); conditions: cited from earlier work; for Specific activity: with DTT
T3 sequence (P16068 1-619 H105F): T1 sequence (Q02153 1-619 H105C) with C105F, E126D, L290S, S574T, K615E, D618E, D619N
T3 sequence (P19687 1-691): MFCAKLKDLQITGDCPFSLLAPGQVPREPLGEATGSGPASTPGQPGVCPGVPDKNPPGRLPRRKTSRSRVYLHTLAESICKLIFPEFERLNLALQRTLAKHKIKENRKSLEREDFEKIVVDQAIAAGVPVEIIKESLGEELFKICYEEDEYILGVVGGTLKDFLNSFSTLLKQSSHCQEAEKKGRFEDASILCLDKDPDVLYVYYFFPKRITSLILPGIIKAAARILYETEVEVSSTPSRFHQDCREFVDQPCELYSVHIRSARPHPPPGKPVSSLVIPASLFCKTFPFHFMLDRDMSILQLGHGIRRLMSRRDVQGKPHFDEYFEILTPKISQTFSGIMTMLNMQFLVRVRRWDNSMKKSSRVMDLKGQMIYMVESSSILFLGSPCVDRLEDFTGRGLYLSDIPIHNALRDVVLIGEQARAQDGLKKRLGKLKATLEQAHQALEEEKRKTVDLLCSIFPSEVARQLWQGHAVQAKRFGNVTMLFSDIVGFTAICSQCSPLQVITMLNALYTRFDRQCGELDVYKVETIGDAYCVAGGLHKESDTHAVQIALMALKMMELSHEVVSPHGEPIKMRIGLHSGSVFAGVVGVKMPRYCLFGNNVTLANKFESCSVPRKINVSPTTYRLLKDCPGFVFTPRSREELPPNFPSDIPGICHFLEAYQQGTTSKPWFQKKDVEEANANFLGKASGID

- PPIX activation, fold (αβ^Cys105 mutant sGC; +DTT): 5.4 fold
- PPIX activation, fold (αβ^Cys105 mutant sGC; No DTT): 1.8 fold
- basal cGMP accumulation relative to NO-activated cells overexpressing wild type enzyme [1]: about ten times higher
- basal level of cGMP accumulation ([1]; basal, 0.5 mM IBMX): 33 nmol/mg/5 min
Molecule: αβ^Cys105: heme-deficient, constitutively active human soluble guanylyl cyclase mutant; β subunit carries His105→Cys substitution
- Km (αβ^Cys105 mutant sGC; +DTT): 153 ± 11 µM
- Specific activity (αβ^Cys105 mutant sGC; +NO, with DTT, after heme reconstitution): 0.44 ± 0.08 µmol/min/mg
- Specific activity (αβ^Cys105 mutant sGC; +NO, without DTT, after heme reconstitution): 1.2 ± 0.2 µmol/min/mg
- Specific activity (αβ^Cys105 mutant sGC; Basal, with DTT (1 mM)): 0.12 ± 0.01 µmol/min/mg
- Specific activity (αβ^Cys105 mutant sGC; Basal, without DTT): 1.2 ± 0.3 µmol/min/mg
- Km (αβ^Cys105 mutant sGC; No DTT): ~150 µM and 150 µM
- Specific activity (αβ^Cys105 mutant sGC; absence of thiols, n=4 independent purifications): 0.0012 ± 0.0003 µmol/min/mg
- Specific activity (αβ^Cys105 mutant sGC; sample without any thiols (FIG. 1B, defined as 100)): 1e-06 ± 1e-07 µmol/min/mg

B1: αβ^Phe105: bovine sGC with βHis105→Phe substitution, from the literature (40) (protein, UniProt P19687 1-691; P16068 1-619, looked up, variant H105F)
Guanylate cyclase soluble … 1: T3 sequence (P19687 1-691)
Guanylate cyclase soluble … 2: T1 sequence (Q02153 1-619 H105C) with C105F, E126D, L290S, S574T, K615E, D618E, D619N
modifications: mutation in beta subunit
- Specific activity (αβ^Phe105 sGC; +NO): 0.11 ± 0.03 µmol/min/mg
- Specific activity (αβ^Phe105 sGC; Basal): 0.04 ± 0.03 µmol/min/mg
- basal activity (αβ^Phe105 sGC): about 40 nmol/min/mg
